Article PMC7954794, “Protein context shapes the specificity of SH3 domain-mediated interactions in vivo” (Nature Communications, 2021)

Tests used:
Type in all cases: cell-based, Saccharomyces cerevisiae
[1] = tested on: ABP1; experiment: DHFR-PCA on solid medium, bait ABP1 (Fig. 1B); settings: bait ABP1, label = prey; 2-4 replicates
Description: (§1) Supplement 41467_2021_21873_MOESM8_ESM.xlsx, sheet "Fig1B" | column: medsize; medrep; Ratio; Score

[2] = tested on: BBC1; experiment: DHFR-PCA on solid medium, bait BBC1 (Fig. 1B); settings: bait BBC1, label = prey; for medrep (log2 median colony size normalized to plate background, PCA score): 2-4 replicates; for Ratio (SH3-deleted/WT medrep): only significant differences showed, PPIs completely lost have a ratio of 0.1 and the gained PPIs 2.5
Description: as §1

[3] = tested on: 575 putative partners (preys) of 22 WT SH3-containing proteins; experiment: DHFR-PCA on solid medium, WT and SH3-deleted baits (Fig. 1B); parameters: key to Score: 0: SH3-independent; 1: SH3-dependent PPIs; 2: SH3-inhibited PPIs; settings: for medrep (log2 median colony size normalized to plate background, PCA score): label = prey; for Ratio (SH3-deleted/WT medrep): only significant differences shown, PPIs completely lost have a ratio of 0.1, gained PPIs 2.5
In short: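 In S. cerevisiae, 22 SH3-containing baits fused genomically to DHFR F[1,2], either WT or with each SH3 replaced via CRISPR by a poly-Gly/Ser linker, screened against 575 DHFR F[3] preys plus 40 negative controls in 1536 arrays, preys duplicated at randomized positions.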

[4] = tested on: Abp1 (1xFLAG); experiment: Western blot expression level of Abp1 SH3-swapped baits (Fig. S2A-B); parameters: Flag (2 bands): unit not given here; settings: sheet FigS2A-B; for Ratio Swap/WT Flag: Flag signal relative to Abp1 WT (Abp1-1 to Abp1-4 = 1); for Flag (2 bands): Western blot Flag signal (2 bands), Abp1 WT, SH3-deleted or SH3-swapped
In short: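 Yeast expressing DHFR F[1,2]-FLAG-tagged baits grown in synthetic complete medium at 30 °C to OD600 ~1.0, lysed with glass beads in Tris pH 7.4/150 mM NaCl/1% Triton X-100. Baits immunoprecipitated on FLAG-M2 beads 120 min at 4 °C, resolved on 10% SDS-PAGE, probed with anti-FLAG HRP (ECL), signals quantified by imager.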

[5] = tested on: Abp1 PPIs; experiment: DHFR-PCA of Abp1 SH3-swapped baits (Fig. 2B-D, S2C, S2F); settings: number of interactions of Abp1 carrying the named SH3; sheet FigS2A-B
In short: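 Yeast DHFR-PCA in which Abp1 baits, carrying their SH3 replaced by CRISPR–Cas9 with one of 27 yeast SH3s or human CTTN, HCLS1 or DBNL SH3s, were mated against 575 SH3-associated DHFR F[3] preys plus 40 negative controls. Four tests were run per PPI. Diploids were selected twice (48 h, 30 °C), then grown 4 days on PCA selection media.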

[6] = bait SLA1-2, DHFR-PCA, Replicates 4 (2 for YCR009C, YDR388W)
[7] = bait SLA1-3, DHFR-PCA, Replicates 4 (2 for YCR009C, YDR388W, YIL033C)

B1: YIR003W (protein, UniProt P40563 1-679, looked up)
Altered inheritance of …: MPSEVTPKVPERPSRRKTSELFPLSGSESGDIKANSEPPTPAGTPNVPTRRPILKAKTMTSFESGMDQESLPKVPLQRPVRRSTTEELNNVMNNTSKELEEIESLISKHNIHNVSRKKSPTSVEEGKVAAIHQNGQRSASDNKTSTNPSPLEKNEHEGAEGNESAISPSNLVNKSNNEVTEHSDSEDLTEKQKVHAALDNEAGDRSHFEEKLIPGDMKVQVDVSKDVEEGSLNALPPSGITESDDKAEKFTKHPESSLEELQKHQEQQEEKIFQNPTDEESTTSLNEKQEGKDNMEVNSQPQGPSDTETVIAATSSNVPSQIASEEENDVPVIPRSRPKKDFEAHVQKEELPNTQEKRVSEECDSTLISTEEESKIPKIPSERPKRRAPPPVPKKPSSRIAAFQEMLQKQQQQDLHNNGNSSATTASADIAKKHTDSSITSDTTKADFTSKLNGLFALPGMVNPGQLPPSLEKKLSSPDTESKLGPQDQSQAKTGPLGGTRRGRGPRGRKLPSKVASVEKIEEDDNTNKIEIFNNWNVSSSFSKEKVLIDTTPGEQAERALDEKSKSIPEEQREQSPNKMEAALCPFELDEKEKLPANAESDPLSQLPQTNAVGNRKAISEESLSPSEAIANRDQNDTTEIQEQQMEDQMEVDMERELSGGYEDVDSALHSEEASFHSL
B1 was tested, and the “medrep (log2 median colony size normalized to plate background, PCA score)” value [1] was 4.768, the “medrep (log2 median colony size normalized to plate background, PCA score)” value [2] was 5.119 and the “medrep (log2 median colony size normalized to plate background, PCA score)” value [3, 6] was 2.274. For the same molecule, the Score ([3]; bait SLA1-2, label = prey) was 1, the “Ratio (SH3-deleted/WT medrep)” value ([3]; bait SLA1-2, label = prey) was 0.1 and the “medrep (log2 median colony size normalized to plate background, PCA score)” value [3, 7] was 2.274. The Score ([3]; bait SLA1-3, label = prey) was 0.

B2: Boi1 (protein, UniProt P38041 1-980, looked up)
BEM1-interacting protein 1: MSLEGNTLGKGAKSFPLYIAVNQYSKRMEDELNMKPGDKIKVITDDGEYNDGWYYGRNLRTKEEGLYPAVFTKRIAIEKPENLHKSPTQESGNSGVKYGNLNDSASNIGKVSSHQQENRYTSLKSTMSDIDKALEELRSGSVEQEVSKSPTRVPEVSTPQLQDEQTLIQEKTRNEENTTHDSLFSSTADLNLSSESLKNISKSNISTKSLEPSSESVRQLDLKMAKSWSPEEVTDYFSLVGFDQSTCNKFKEHQVSGKILLELELEHLKELEINSFGIRFQIFKEIRNIKSAIDSSSNKLDADYSTFAFENQAAQLMPAATVNRDEIQQQISSKCNKLSSESSDRKSSSVTTELQRPSSVVVNPNFKLHDPAEQILDMTEVPNLFADKDIFESPGRAPKPPSYPSPVQPPQSPSFNNRYTNNNARFPPQTTYPPKNKNPTVYSNGLIPNSSTSSDNSTGKFKFPAMNGHDSNSRKTTLTSATIPSINTVNTDESLPAISNISSNATSHHPNRNSVVYNNHKRTESGSSFVDLFNRISMLSPVKSSFDEEETKQPSKASRAVFDSARRKSSYGHSRDASLSEMKKHRRNSSILSFFSSKSQSNPTSPTKQTFTIDPAKMTSHSRSQSNSYSHARSQSYSHSRKHSLVTSPLKTSLSPINSKSNIALAHSETPTSSNNKEAVSQPSEGKHKHKHKHKSKHKHKNSSSKDGSSEEKSKKKLFSSTKESFVGSKEFKRSPSELTQKSTKSILPRSNAKKQQTSAFTEGIRSITAKESMQTADCSGWMSKKGTGAMGTWKQRFFTLHGTRLSYFTNTNDEKERGLIDITAHRVLPASDDDRLISLYAASLGKGKYCFKLVPPQPGSKKGLTFTEPRVHYFAVENKSEMKAWLSAIIKATIDIDTSVPVISSYATPTIPLSKAQTLLEEARLQTQLRDAEEEEGRDQFGWDDTQNKRNSNYPIEQDQFETSDYLESSAFEYPGGRL
With B2 the “Ratio Swap/WT Flag” value [4] was 0.615, the “Flag (2 bands)” value [4] was 59532 and the “Interactions in Abp1” value [5] was 70.

B3: YLR196W (protein, UniProt P21304 1-576, looked up)
Periodic tryptophan protein 1: MISATNWVPRGFSSEFPEKYVLDDEEVERINQLAQLNLDDAKATLEEAEGESGVEDDAATGSSNKLKDQLDIDDDLKEYNLEEYDDEEIADNEGGKDVSMFPGLSNDSDVKFHEGEKGEDPYISLPNQEDSQEEKQELQVYPSDNLVLAARTEDDVSYLDIYVYDDGAGFHSSDIPVEEGDEADPDVARGLVRDPALYVHHDLMLPAFPLCVEWLDYKVGSNSEEAANYAAIGTFDPQIEIWNLDCVDKAFPDMILGEPLDNSMVSLKSKKKKKKSKTGHITTHHTDAVLSMAHNKYFRSVLASTSADHTVKLWDLNSGNAARSLASIHSNKNVSSSEWHMLNGSILLTGGYDSRVALTDVRISDESQMSKYWSAMAGEEIETVTFASENIILCGTDSGNVYSFDIRNNENRKPVWTLKAHDAGISTLCSNKFIPGMMSTGAMGEKTVKLWKFPLDDATNTKGPSMVLSRDFDVGNVLTSSFAPDIEVAGTMVIGGVNKVLKLWDVFTNRSVRKSFKSELENVQARAKEEAQKIGKSSRIARKYTSNDNPDTVITIDDQGEDEEEREGGDEHDDMA
B3 was tested, and the “medrep (log2 median colony size normalized to plate background, PCA score)” value [1] was 3.732, the “medrep (log2 median colony size normalized to plate background, PCA score)” value [2] was 2.428 and the “Ratio (SH3-deleted/WT medrep)” value [2] was 0.1.

B4: Abp1-1 (protein, UniProt P15891 2-592, looked up)
Actin-binding protein: ALEPIDYTTHSREIDAEYLKIVRGSDPDTTWLIISPNAKKEYEPESTGSSFHDFLQLFDETKVQYGLARVSPPGSDVEKIIIIGWCPDSAPLKTRASFAANFAAVANNLFKGYHVQVTARDEDDLDENELLMKISNAAGARYSIQTSSKQQGKASTPPVKKSFTPSKSPAPVSKKEPVKTPSPAPAAKISSRVNDNNDDDDWNEPELKERDFDQAPLKPNQSSYKPIGKIDLQKVIAEEKAKEDPRLVQKPTAAGSKIDPSSDIANLKNESKLKRDSEFNSFLGTTKPPSMTESSLKNDDDKVIKGFRNEKSPAQLWAERKAKQNSGNAETKAEAPKPEVPEDEPEGEPDVKDLKSKFEGLAASEKEEEEMENKFAPPPKKSEPTIISPKPFSKPQEPVKAEEAEQPKTDYKKIGNPLPGMHIEADNEEEPEENDDDWDDDEDEAAQPPLPSRNVASGAPVQKEEPEQEEIAPSLPSRNSIPAPKQEEAPEQAPEEEIEEEAEEAAPQLPSRSSAAPPPPPRRATPEKKPKENPWATAEYDYDAAEDNELTFVENDKIINIEFVDDDWWLGELEKDGSKGLFPSNYVSLGN
In the case of B4, the “Ratio Swap/WT Flag” value [4] is reported as 1, the “Flag (2 bands)” value [4] is reported as 96800 and the “Interactions in Abp1” value [5] is reported as 86.

B5: YFL010C (protein, UniProt P43582 1-211, looked up)
WW domain-containing protein …: MAQSKSNPPQVPSGWKAVFDDEYQTWYYVDLSTNSSQWEPPRGTTWPRPKGPPPGVNNEKSSRQQADQAPPPYSSQSTPQVQAGAQAQQPRYYQPQQPQYPQYPQQQRYYPQQAPMPAAAPQQAYYGTAPSTSKGSGHGGAMMGGLLGVGAGLLGGAMLEHAFDDHNYDGPDTVVVENNYYGDDAGGSDGGFDDAGGFDGGFDDGFDGSDF
In the case of B5, the “medrep (log2 median colony size normalized to plate background, PCA score)” value [1] is reported as 2.163, the “medrep (log2 median colony size normalized to plate background, PCA score)” value [2] is reported as 1.4009 and the “Ratio (SH3-deleted/WT medrep)” value [2] is reported as 0.1.

B6: YOR042W (protein, UniProt Q08412 1-411, looked up)
Ubiquitin-binding protein CUE5: MEEKEGIKDSSLLEKSNVPESINEDISKTTDVDLNSDGKKDNDTSAKDGTPKVEEKVNKSSGIDEDEVVTPAEDAKEEEEEHPPLPARRKSEEEPSKENPILQELKDAFPNLEEKYIKAVIIASQGVLSPAFNALLFLSDPESGKDIELPTQPVRKNPEAPARRRQTQLEQDELLARQLDEQFNSSHSRRRNRDRATRSMHEQRRRRHNPNEREQHHEDSEEEDSWSQFVEKDLPELTDRAGRSLQDTANKVSNWISDAYRRNFASGNEQNDNQHGHQDQQEWEPEIVDLSQGGKNSRPQQPERRRFNSFGVQVGDDSLESHGITLHNEDGFEDDEDVPPQLPTRTKSGESTGKVVAETTYIDTPDTETKKKWQPLPPEPLDTTPTKVNAVSRNKKNPDEDEFLINSDDEM
B6 was tested, and the “medrep (log2 median colony size normalized to plate background, PCA score)” value [1] was 4.057, the “medrep (log2 median colony size normalized to plate background, PCA score)” value [2] was 1.718 and the “Ratio (SH3-deleted/WT medrep)” value [2] was 0.1. For the same molecule, the “medrep (log2 median colony size normalized to plate background, PCA score)” value [3, 6] was 2.528, the Score ([3]; bait SLA1-2, label = prey) was 1 and the “Ratio (SH3-deleted/WT medrep)” value ([3]; bait SLA1-2, label = prey) was 0.1. For the same molecule, the “medrep (log2 median colony size normalized to plate background, PCA score)” value [3, 7] was 2.528 and the Score ([3]; bait SLA1-3, label = prey) was 0.
